We go through 1 molecule from article PMC12221994.

The target of one data set is KU70/80;DNA-PKcs;TRF2 (human;human;human, UniProt P12956;P13010;P78527;Q15554 1-609;1-732;1-4128;1-542, ||). Briefly: KU pull-down; TRF2 association with KU mediated by template DNA; Footprinting: 25 mM HEPES pH 7.6, 80 mM KCl, 1.5 mM CaCl2, 1.5 mM MgCl2, 5% glycerol, 50 ug/ml BSA, 2 mM DTT, ice then 37 C (EMSA same buffer, 37 C); pull-down: 20 mM HEPES pH 7.6, 80 mM KCl, 5% glycerol, 0.01% NP-40, 1 mM DTT, 30 C; cryo-EM: 40 mM HEPES pH 7.6, 100 mM NaCl, 3 mM MgCl2, 4 C. The settings on record: protein: recombinant;native;recombinant; tags: FLAG (KU70 N-terminal);;dual strep; copies: 1;1;1;2; blunt. (In EMSA bound probe runs differently from free probe, usually more slowly.)

The target of the next data set is KU70/80;DNA-PKcs (human;human, UniProt P12956;P13010;P78527 1-609;1-732;1-4128, |). The data set is described as follows: KU pull-down; DNA-PKcs associates with KU in a DNA-dependent manner; Footprinting: 25 mM HEPES pH 7.6, 80 mM KCl, 1.5 mM CaCl2, 1.5 mM MgCl2, 5% glycerol, 50 ug/ml BSA, 2 mM DTT, ice then 37 C (EMSA same buffer, 37 C); pull-down: 20 mM HEPES pH 7.6, 80 mM KCl, 5% glycerol, 0.01% NP-40, 1 mM DTT, 30 C; cryo-EM: 40 mM HEPES pH 7.6, 100 mM NaCl, 3 mM MgCl2, 4 C. The settings on record: protein: recombinant;native; tags: FLAG (KU70 N-terminal);; copies: 1;1;1; blunt.

B1: PE3/PE4 telomeric duplex (dsDNA)
DNA 1: CGTCTATATTCTATTGTCTCTTAGGGTTAGGGTTAGGGTTAGGGTTAGGGTTAGGGTTAGGGTTAGGGTTAACATCAGTCTCACATAGATTAGCTCACGC
DNA 2: GCGTGAGCTAATCTATGTGAGACTGATGTTAACCCTAACCCTAACCCTAACCCTAACCCTAACCCTAACCCTAACCCTAAGAGACAATAGAATATAGACG
In the case of B1, the binding result with KU70/80;DNA-PKcs;TRF2 and with KU70/80;DNA-PKcs was “binds” in each case.
